This is an account of results in PMC8622166 (International Journal of Molecular Sciences, 2021).

This assay concerns the target RAC3 (human, UniProt P60763 1-192). As to the kind of experiment: stopped-flow fluorimetry; association (kobs) at one concentration: 2 µM GDI mixed with 0.2 µM mdGDP-bound RHO GTPase; 25 °C, 30 mM Tris/HCl pH 7.5, 10 mM K2HPO4/KH2PO4 pH 7.5, 5 mM MgCl2, 3 mM DTT. The note with it: both partners purified.

B1: GDI3ΔN20 (domain or fragment, human, UniProt Q99819 21-225, looked up)
chain: LCARVLLADKEGGPPAVDEVLDEAVPEYRAPGRKSLLEIRQLDPDDRSLAKYKRVLLGPLPPAVDPSLPNVQVTRLTLLSEQAPGPVVMDLTGDLAVLKDQVFVLKEGVDYRVKISFKVHREIVSGLKCLHHTYRRGLRVDKTVYMVGSYGPSAQEYEFVTPVEEAPRGALVRGPYLVVSLFTDDDRTHHLSWEWGLCICQDWKD
For B1, the binding result is on record as “binds”.
